Substrate in series [1]: CC(C)C(=O)C(=O)O
In words: purified protein. In kind it is biochemical, Lactococcus lactis. The conditions noted are these: 50 mM potassium phosphate, 1 mM MgSO4, 0.5 mM thiamine pyrophosphate, 0.2 mM NADH; brackets are 95% CI.

Substrate in series [2]: CC(=O)C(=O)O
In words: purified protein. In kind it is biochemical, Lactococcus lactis. The settings on record: 50 mM potassium phosphate, 1 mM MgSO4, 0.5 mM thiamine pyrophosphate, 0.2 mM NADH; brackets are 95% CI.

Consider one protein from publication PMC9063327.

B1: KivD (Lactococcus lactis subsp. lactis) (protein)
chain: MYTVGDYLLDRLHELGIEEIFGVPGDYNLQFLDQIISHKDMKWVGNANELNASYMADGYARTKKAAAFLTTFGVGELSAVNGLAGSYAENLPVVEIVGSPTSKVQNEGKFVHHTLADGDFKHFMKMHEPVTAARTLLTAENATVEIDRVLSALLKERKPVYINLPVDVAAAKAEKPSLPLKKENSTSNTSDQEILNKIQESLKNAKKPIVITGHEIISFGLEKTVTQFISKTKLPITTLNFGKSSVDEALPSFLGIYNGTLSEPNLKEFVESADFILMLGVKLTDSSTGAFTHHLNENKMISLNIDEGKIFNERIQNFDFESLISSLLDLSEIEYKGKYIDKKQEDFVPSNALLSQDRLWQAVENLTQSNETIVAEQGTSFFGASSIFLKSKSHFIGQPLWGSIGYTFPAALGSQIADKESRHLLFIGDGSLQLTVQELGLAIREKINPICFIINNDGYTVEREIHGPNQSYNDIPMWNYSKLPESFGATEDRVVSKIVRTENEFVSVMKEAQADPNRMYWIELILAKEGAPKVLKKMGKLFAEQNKS
notes: full length, pET28a, N-terminal His tag (kept), expressed in E. coli BL21(DE3), Ni-NTA purified; gene from pGEM-kivD
On to B1, for which, in series [1], the Km is reported as 4.18 (4.08, 4.23) mM; the Vmax is reported as 0.0409 (0.038, 0.044); the kcat stood at 3.46 s⁻¹; the kcat/Km turned out to be 828 M⁻¹ s⁻¹. Also, in series [2], the Km is on record as 18.81 (17.15, 20.85) mM; the Vmax is given as 0.0034 (0.0029, 0.0039); the kcat was determined as 0.28 s⁻¹; the kcat/Km amounted to 15.1 M⁻¹ s⁻¹.
